Assays:
Assay in all cases: pulldown
Details in all cases: sense/antisense normalized AUC more than 2-fold
[1] = molecular target: T1, SFPQ (splicing factor, proline- and glutamine-rich) (Homo sapiens) (UniProt P23246)
T1 sequence: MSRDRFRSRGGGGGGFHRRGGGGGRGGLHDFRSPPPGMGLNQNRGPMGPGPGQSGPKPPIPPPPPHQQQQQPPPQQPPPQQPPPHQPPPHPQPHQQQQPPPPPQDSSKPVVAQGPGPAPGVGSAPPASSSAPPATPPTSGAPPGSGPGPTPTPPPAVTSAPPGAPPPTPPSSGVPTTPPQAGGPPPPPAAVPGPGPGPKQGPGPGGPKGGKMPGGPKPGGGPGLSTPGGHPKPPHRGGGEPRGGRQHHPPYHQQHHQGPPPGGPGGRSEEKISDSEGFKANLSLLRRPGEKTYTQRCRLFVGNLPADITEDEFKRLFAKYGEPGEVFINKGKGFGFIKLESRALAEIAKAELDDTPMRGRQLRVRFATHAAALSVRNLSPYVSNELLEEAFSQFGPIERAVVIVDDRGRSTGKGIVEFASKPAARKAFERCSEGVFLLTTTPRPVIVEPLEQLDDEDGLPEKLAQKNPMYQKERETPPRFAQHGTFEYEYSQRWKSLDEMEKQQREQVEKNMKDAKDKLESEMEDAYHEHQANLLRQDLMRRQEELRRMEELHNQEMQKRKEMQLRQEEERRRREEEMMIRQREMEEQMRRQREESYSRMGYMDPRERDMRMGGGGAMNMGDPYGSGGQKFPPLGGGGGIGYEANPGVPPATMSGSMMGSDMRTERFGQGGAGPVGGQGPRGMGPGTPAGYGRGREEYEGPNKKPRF

[2] = molecular target: ACLY (ATP-citrate synthase) (Homo sapiens) (UniProt P53396)
[3] = molecular target: FLG2 (Filaggrin-2) (Homo sapiens) (UniProt Q5D862)

Measured: binding signal (fraction of sense)

FLG2 (Filaggrin-2) (Homo sapiens), sequence (Q5D862 whole entry): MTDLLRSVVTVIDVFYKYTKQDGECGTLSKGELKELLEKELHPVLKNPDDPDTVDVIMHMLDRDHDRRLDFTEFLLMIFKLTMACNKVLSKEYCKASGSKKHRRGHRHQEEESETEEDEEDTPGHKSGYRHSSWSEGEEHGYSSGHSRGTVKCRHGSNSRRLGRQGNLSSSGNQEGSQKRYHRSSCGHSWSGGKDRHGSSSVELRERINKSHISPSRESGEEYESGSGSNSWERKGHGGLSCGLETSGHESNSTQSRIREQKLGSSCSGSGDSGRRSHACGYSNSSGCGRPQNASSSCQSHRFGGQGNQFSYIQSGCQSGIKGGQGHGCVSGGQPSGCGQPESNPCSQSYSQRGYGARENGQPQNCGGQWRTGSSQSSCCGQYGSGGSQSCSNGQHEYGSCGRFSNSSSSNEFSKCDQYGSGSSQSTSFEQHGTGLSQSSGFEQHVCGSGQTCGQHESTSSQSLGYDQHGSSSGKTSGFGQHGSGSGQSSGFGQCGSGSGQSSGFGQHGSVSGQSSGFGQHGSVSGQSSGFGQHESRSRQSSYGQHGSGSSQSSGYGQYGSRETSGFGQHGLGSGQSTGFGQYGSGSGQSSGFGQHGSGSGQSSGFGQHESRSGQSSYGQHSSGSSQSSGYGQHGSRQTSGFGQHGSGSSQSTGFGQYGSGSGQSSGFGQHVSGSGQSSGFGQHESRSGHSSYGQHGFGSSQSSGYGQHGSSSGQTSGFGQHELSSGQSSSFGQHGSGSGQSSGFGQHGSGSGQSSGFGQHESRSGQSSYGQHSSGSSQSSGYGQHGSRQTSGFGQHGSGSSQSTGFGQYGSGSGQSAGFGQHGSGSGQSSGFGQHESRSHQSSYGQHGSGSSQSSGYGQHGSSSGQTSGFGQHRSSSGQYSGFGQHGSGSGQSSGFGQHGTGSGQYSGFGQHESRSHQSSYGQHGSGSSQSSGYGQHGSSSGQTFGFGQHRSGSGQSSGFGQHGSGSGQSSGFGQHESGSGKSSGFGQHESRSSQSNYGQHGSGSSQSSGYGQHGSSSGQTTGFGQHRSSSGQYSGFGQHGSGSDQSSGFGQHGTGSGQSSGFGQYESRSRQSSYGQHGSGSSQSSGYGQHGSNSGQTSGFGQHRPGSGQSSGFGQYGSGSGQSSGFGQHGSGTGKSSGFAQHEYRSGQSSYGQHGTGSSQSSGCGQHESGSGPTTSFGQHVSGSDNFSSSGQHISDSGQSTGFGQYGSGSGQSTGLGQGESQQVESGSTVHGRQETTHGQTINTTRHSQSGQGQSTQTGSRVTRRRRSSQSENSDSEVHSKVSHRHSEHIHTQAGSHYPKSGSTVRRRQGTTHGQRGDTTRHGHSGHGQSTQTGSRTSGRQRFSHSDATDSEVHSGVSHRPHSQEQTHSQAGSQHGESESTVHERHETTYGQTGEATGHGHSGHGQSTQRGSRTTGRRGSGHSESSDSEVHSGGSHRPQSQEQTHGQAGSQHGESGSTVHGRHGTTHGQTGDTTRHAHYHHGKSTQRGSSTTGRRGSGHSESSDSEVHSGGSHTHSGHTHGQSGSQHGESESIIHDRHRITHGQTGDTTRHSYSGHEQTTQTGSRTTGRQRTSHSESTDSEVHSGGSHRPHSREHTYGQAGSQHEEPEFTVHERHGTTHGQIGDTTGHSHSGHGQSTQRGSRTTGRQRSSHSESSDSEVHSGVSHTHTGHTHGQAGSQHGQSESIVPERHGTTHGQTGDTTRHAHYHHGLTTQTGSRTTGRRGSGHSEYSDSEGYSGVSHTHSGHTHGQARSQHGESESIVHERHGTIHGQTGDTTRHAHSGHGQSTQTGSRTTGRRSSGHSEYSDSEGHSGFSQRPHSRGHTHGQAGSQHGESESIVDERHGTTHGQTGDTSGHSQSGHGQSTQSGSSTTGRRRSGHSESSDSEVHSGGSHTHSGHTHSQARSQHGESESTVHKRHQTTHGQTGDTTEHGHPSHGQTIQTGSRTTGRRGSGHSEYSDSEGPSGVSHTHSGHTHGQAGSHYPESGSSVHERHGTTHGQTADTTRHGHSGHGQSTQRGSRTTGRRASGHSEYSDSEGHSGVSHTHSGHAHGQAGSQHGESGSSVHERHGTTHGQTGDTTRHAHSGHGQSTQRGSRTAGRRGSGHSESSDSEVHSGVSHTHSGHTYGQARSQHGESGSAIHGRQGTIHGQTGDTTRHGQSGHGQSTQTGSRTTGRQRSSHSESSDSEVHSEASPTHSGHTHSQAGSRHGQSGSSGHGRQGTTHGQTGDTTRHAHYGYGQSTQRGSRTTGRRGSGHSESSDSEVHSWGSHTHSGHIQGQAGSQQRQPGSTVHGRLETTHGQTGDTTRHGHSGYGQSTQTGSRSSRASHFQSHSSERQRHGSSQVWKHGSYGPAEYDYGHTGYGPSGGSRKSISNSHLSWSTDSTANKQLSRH
ACLY (ATP-citrate synthase) (Homo sapiens), sequence (P53396 whole entry): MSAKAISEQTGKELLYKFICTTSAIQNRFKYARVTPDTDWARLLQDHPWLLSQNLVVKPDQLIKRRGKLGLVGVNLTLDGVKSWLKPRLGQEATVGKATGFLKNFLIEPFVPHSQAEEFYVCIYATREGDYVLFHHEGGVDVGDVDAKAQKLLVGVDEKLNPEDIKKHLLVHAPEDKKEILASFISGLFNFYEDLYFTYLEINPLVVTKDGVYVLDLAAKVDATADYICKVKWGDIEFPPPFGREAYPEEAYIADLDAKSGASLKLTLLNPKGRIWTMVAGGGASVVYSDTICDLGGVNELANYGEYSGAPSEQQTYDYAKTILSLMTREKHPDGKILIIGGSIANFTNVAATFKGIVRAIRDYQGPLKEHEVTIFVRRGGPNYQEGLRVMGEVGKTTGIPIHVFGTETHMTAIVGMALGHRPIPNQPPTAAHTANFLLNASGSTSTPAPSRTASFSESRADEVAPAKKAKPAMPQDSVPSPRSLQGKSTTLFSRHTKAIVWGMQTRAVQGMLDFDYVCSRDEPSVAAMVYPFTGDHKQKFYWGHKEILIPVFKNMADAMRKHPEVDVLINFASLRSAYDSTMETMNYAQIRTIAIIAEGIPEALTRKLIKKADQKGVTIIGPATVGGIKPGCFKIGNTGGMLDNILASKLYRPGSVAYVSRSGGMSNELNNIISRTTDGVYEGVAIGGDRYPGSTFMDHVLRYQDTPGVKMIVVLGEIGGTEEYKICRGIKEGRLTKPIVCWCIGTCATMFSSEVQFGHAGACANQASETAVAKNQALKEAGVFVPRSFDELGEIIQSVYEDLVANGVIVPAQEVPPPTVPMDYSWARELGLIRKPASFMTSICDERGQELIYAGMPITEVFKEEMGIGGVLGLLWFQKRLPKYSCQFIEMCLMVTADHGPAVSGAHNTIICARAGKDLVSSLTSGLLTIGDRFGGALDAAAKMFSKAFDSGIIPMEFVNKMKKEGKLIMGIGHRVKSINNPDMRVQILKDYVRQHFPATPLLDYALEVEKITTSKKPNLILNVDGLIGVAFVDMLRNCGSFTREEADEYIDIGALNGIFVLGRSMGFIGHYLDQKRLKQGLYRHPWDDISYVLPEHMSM

lnc-FAM164A1 antisense RNA
< 0.5: all assays above

Reference: patent US20200237800
